According to paper PMC6891085:
Like-named read-outs stand apart in the source and are kept apart here.

Assays:
Test in all cases: co-sedimentation
[1] = target: taxol-stabilized microtubules (MTs) of porcine brain tubulin (porcine) (UniProt P02550)
[2] = target: subtilisin-treated MTs (s-MTs) (porcine) (UniProt P02550)
[3] = target: taxol-stabilized microtubules (MTs) of porcine brain tubulin (porcine) (UniProt P02550); remark: listed apart in the source

Chain of UniProt P02550 (P02550 whole entry): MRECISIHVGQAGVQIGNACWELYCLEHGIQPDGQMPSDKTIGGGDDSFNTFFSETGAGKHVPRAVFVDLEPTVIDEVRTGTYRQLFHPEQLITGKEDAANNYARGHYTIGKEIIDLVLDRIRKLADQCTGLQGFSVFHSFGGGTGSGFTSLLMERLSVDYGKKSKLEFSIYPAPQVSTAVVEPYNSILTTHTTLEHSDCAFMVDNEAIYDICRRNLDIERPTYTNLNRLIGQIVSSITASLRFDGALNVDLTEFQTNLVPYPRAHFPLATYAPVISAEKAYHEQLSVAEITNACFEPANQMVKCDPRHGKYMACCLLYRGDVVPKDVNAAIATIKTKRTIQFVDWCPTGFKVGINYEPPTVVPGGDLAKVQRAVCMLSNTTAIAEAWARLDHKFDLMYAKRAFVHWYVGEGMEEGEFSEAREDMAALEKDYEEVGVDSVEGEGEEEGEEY

With “Abl2 with MBP cleaved off (from UniProt Q4JIM5 74-1182) (enzyme)” as the substance, how does the Kd [1] read?
Its Kd is 170 nM.

With “Abl2-557-C (from UniProt Q4JIM5 557-1182) (domain or fragment)” as the substance, how does the Kd [1] read?
Its Kd is 700 nM.

For “Abl2-N-688 (from UniProt Q4JIM5 74-688) (domain or fragment)”, which Kd [1] is on record?
Its Kd is 240 nM.

What does the source list for “MBP-tagged Abl2 (from UniProt Q4JIM5 74-1182) (enzyme)”?
Kd [1]: 210 nM; Kd [2]: > 3000 nM; Kd [3]: 360 nM

Which Kd [1] does the source give for “MBP-tagged Abl2-557-688 (from UniProt Q4JIM5 557-688) (domain or fragment)” here?
The Kd was 1300 nM.
